{"source": "patent US20090075921A1", "about": "“Bone/joint disease sensitivity gene and use thereof” (Riken, priority 2004, published 2009)", "key": {"[1]": {"test_system": "normal human articular chondrocytes of knee joint (NHAC)", "assay": "Purified recombinant mouse asporin on TGF-β-stimulated gene expression in NHAC", "assay_type": "cell-based", "protocol": "NHAC purchased from Cambrex Company was cultured in the growth medium attached to the kit (chondrocyte growth medium, CGM) in a 10-cm petri dish, after which the cells were scraped with 0.05% Trypsin/EDTA, and inoculated to a 12-well plate at 10^5 cells/well; on the following day, the medium was exchanged with DMEM/F12+0.2% FBS; 5 hours later, asporin was added. After the cells were further cultured for 12 hours, TGF-β1 (40 ng/ml) was added; from the cells cultured for 48 hours, total RNA preparation, cDNA synthesis, and real-time PCR were performed according to the methods described in Example 12.\nUsing a cDNA prepared by the method described in Example 35, the expression of the asporin and TGF-β1 genes was examined by real-time PCR. […] From this, it was shown that asporin negatively regulated the expression of both the asporin and TGF-β1 genes in the presence of TGF-β1."}, "[2]": {"test_system": "Smad2 phosphorylation in ATDC5 cells", "assay": "TGF-β1-stimulated Smad2 phosphorylation in ATDC5 cells (Western blotting)", "assay_type": "cell-based, mouse", "details": "TGF-β1 10 ng/ml, 5 minutes", "protocol": "ATDC5 was inoculated to a 12-well plate, and cultured using the medium 1-2 described in Example 19 until the cells became confluent, after which the medium was exchanged with the same medium but containing 0.2% FBS; 4 hours later, asporin was added. 12 hours later, TGF-β1 (10 ng/ml) was added; 5 minutes later, the cells were lysed with the M-PER reagent (PIERCE). Using this cell extract, SDS-PAGE was performed, and according to the protocol attached to an antibody product of Cell Signaling Company, Western blotting was performed. As the primary antibodies for detection of phosphorylated Smad2 and Smad2 protein, phospho-Smad2 antibody (Cell Signaling) and rabbit anti-Smad2 (Zymed Laboratories) were used, respectively. As the secondary antibody, anti-rabbit IgG-HRP (Cell Signaling) was used."}, "[3]": {"test_system": "ATDC5 cells", "assay": "MTT assay of ATDC5 cell growth", "assay_type": "cell-based, mouse", "protocol": "ATDC5 was inoculated to a 12-well plate at 0.4×10^5 cells/well, and cultured using the medium 1-2 described in Example 19 for 24 hours, after which asporin and bFGF were added, and MTT assay was performed over time as described below. Specifically, the medium was removed by suction, the 1 mg/ml MTT reagent (DOJINDO) dissolved in DMEM/F12 was added at 1 ml/well, and the plate was incubated in a CO2 incubator for 1 hour. The supernatant was removed by suction, a Lysis reagent (86% isopropanol, 40 mM HCl, 1% SDS) was added to the plate at 0.2 ml/well, and extraction was performed at room temperature for 5 minutes. This extract was transferred to a 96-well plate, and OD550 was measured using a plate reader."}, "[4]": {"test_system": "ATDC5 cells", "assay": "bFGF-stimulated BrdU uptake in ATDC5 cells", "assay_type": "cell-based, mouse", "details": "serum-free DMEM/F12, 20 hours", "protocol": "When ATDC5 cells inoculated in the same manner as Example 40 became subconfluent, the cells were twice washed with serum-free DMEM/F12, serum-free DMEM/F12 was added at 1 ml/well, and the cells were cultured for 24 to 48 hours. Asporin and bFGF were added thereto, and the cells were further cultured for 20 hours, after which BrdU uptake assay was performed using Cell Proliferation ELISA, BrdU (Roche) by the protocol modified for 12-well plate assay as described below. Specifically, BrdU was added to the cells to obtain a final concentration of 1 μM, and the cells were cultured at 37° C. for 4 hours, after which the culture broth was removed by suction, and a fixative solution (FixDenat) was added at 1 ml/well, after which the plate was allowed to stand at room temperature for 30 minutes. The fixative solution was removed by suction, BrdU antibody-HRP (×1000) was added at 0.5 ml/well, and the plate was allowed to stand at room temperature for 1 hour, washed with TBST four times, a substrate solution was added at 0.3 ml/well to proceed the reaction at room temperature for 30 minutes until sufficient color development occurred. 1 M phosphoric acid was added at 0.3 ml/well to step the reaction, transferred to a 96-well plate, and OD415 was measured using a plate reader."}, "[5]": {"molecular_target": "bFGF (Homo sapiens, UniProt P09038)", "sequence (P09038 134-288 limits assumed, species assumed)": "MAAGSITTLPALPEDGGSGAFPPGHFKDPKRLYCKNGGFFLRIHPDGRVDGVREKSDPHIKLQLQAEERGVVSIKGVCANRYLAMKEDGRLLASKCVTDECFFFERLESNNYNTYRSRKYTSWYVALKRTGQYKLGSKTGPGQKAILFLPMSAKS", "assay": "Binding assay of mouse asporin and bFGF by microplate assay method", "details": "bFGF-coated plate, OD405", "protocol": "A binding assay was performed using the method described in Example 24 with a partial modification as described below. To a Maxisorp 96-well microplate of Nunc, a 1 μg/ml TGF-β1 solution prepared with 0.05M sodium carbonate buffer (pH 9.6) was dispensed at 100 μl/well, and the microplate was coated with TGF-β1 at 4° C. overnight. The TGF-β-coated wells were blocked in 200 μl/well of Block Ace at 37° C. for 3 hours. Next, mouse asporin and biotinylated mouse asporin, diluted with Block Ace, were added to obtain a total volume of 100 μl per well, and the microplate was incubated at 4° C. overnight. The wells were washed with […] of TBST three times, after which streptavidin-alkaline phosphatase (Novagen) diluted 1000 fold with TBST was added at […], and the microplate was incubated at room temperature for 1 hour. The wells were washed with 400 μl/well of TBST five times, and then colored using an alkaline phosphatase substrate kit (BIO-RAD), and the absorbance at 405 nm was measured using Ultramark Microplate Imaging System (BIO-RAD).\nA binding assay was performed in the same manner as Example 34 except that the microplate was coated with bFGF solution in place of 1 μg/ml TGF-β1."}, "[6]": {"test_system": "Smad3-specific gene transcription in NHAC", "assay": "SBE4-Luc reporter assay of TGF-β1-stimulated Smad3-specific gene transcription in NHAC", "assay_type": "cell-based, human", "details": "asporin 40 μg/ml, TGF-β1 10 ng/ml, 24 hours", "protocol": "NHAC was inoculated to a 24-well plate at 2.5×10^4 cells/well, cultured in a DMEM/F12 containing 10% FBS and penicillin/streptomycin for 24 hours, and transfected with the SBE4-Luc (Smad binding element ×4-luciferase) plasmid and the pRL-TK vector, which was used as endogenous control. 48 hours later, asporin (40 μg/ml) was added; still 12 hours later, TGF-β1 (10 ng/ml) was added; and the cells were incubated for 24 hours. The luciferase activity in the cells was measured using a PG-DUAL-SP reporter assay system (Toyo Ink)."}}}
{"molecule": "purified mouse asporin: recombinant mouse asporin expressed in Escherichia coli, refolded from insoluble fraction and purified by gel filtration (protein, left off: small tags and cut ends) DMEDTDDDDNDDDDNSLFPTKEPVNPFFPFDLFPTCPFGCQCYSRVVHCSDLGLTSVPNNIPFDTRMVDLQNNKIKEIKENDFKGLTSLYALILNNNKLTKIHPKTFLTTKKLRRLYLSHNQLSEIPLNLPKSLAELRIHDNKVKKIQKDTFKGMNALHVLEMSANPLENNGIEPGAFEGVTVFHIRIAEAKLTSIPKGLPPTLLELHLDFNKISTVELEDLKRYRELQRLGLGNNRITDIENGTFANIPRVREIHLEHNKLKKIPSGLQELKYLQIIFLHYNSIAKVGVNDFCPTVPKMKKSLYSAISLFNNPMKYWEIQPATFRCVLGRMSVQLGNVGK", "values": [{"measurement": "TGF-β1-stimulated increases in expression of the asporin and TGF-β1 genes", "setting": "[1]; NHAC, cDNA of Example 35", "result": "both suppressed"}, {"measurement": "TGF-β1-stimulated expression of the type II collagen and aggrecan genes", "setting": "[1]; TGF-β1 40 ng/ml, 48 hours", "result": "suppressed the TGF-β1-stimulated expression of the type II collagen and aggrecan genes in NHAC concentration-dependently"}, {"measurement": "Smad2 phosphorylation by TGF-β1 stimulation", "setting": "[2]", "result": "suppressed the Smad2 phosphorylation by TGF-β1 (10 ng/ml) stimulation concentration-dependently"}, {"measurement": "growth of ATDC5 cells (MTT, OD550)", "setting": "[3]; added alone, medium 1-2", "result": "suppressed the growth of ATDC5 cells concentration-dependently"}, {"measurement": "growth suppressive effect of bFGF on ATDC5 cells", "setting": "[3]; addition of asporin 10 μg/ml", "result": "enhanced"}, {"measurement": "BrdU uptake in the absence of bFGF", "setting": "[4]", "result": "did not change BrdU uptake"}, {"measurement": "BrdU uptake in the presence of bFGF", "setting": "[4]", "result": "further enhance the increase in BrdU uptake"}, {"measurement": "binding to bFGF (microplate)", "setting": "[5]", "result": "bound to bFGF concentration-dependently and specifically"}, {"measurement": "TGF-β1-stimulated elevation of luciferase activity (SBE4-Luc)", "setting": "[6]", "result": "significantly suppressed"}]}
